Data on 75 variants can be found in article PMC12102759 (2025).

The chains are these.
B1: PIP5K1C peptide 642-657 (Phosphatidylinositol 4-phosphate 5-kinase type-1 gamma), 16-mer library wild type / TLN1 PTB (TLN1 Phosphotyrosine-binding (PTB) domain, residues 309-401) (parent complex)
chain 1: TDERSWVYSPLHYSAQ
chain 2: GVSFFLVKEKMKGKNKLVPRLLGITKECVMRVDEKTKEVIQEWNLTNIKRWAASPKSFTLDFGDYQDGYYSVQTTEGEQIAQLIAGYIDIILK

Variants of B1 are the subject of this test. The test is described as follows: proteomic peptide phage display deep mutational scan (ProP-PD DMS): M13 P8 16-mer library selected against immobilised GST-tagged bait for four days (rounds), NGS of the eluted pools per day and pseudo-replica; bait immobilised on MaxiSorp plates (10 µg), library pre-cleared on GST, 2 h binding at 4 °C, five washes; one round per day, days 1-4; value from days 2 and 3.
Regarding chain 1 T1F, the screen value was 0.0018 average fractional NGS count over selection days 2 and 3 (reads of this peptide / all reads for the bait, averaged over ….

As to chain 1 T1G, the screen value is 0.00259 average fractional NGS count over selection days 2 and 3 (reads of this peptide / all reads for the bait, averaged over ….

On to chain 1 T1W, for which the screen value is 0.00109 average fractional NGS count over selection days 2 and 3 (reads of this peptide / all reads for the bait, averaged over ….

Consider chain 1 T1D, for which the screen value was 0.00201 average fractional NGS count over selection days 2 and 3 (reads of this peptide / all reads for the bait, averaged over ….

chain 1 T1K: the screen value was 0.001 average fractional NGS count over selection days 2 and 3 (reads of this peptide / all reads for the bait, averaged over ….

Consider chain 1 T1E, for which the screen value is 0.00477 average fractional NGS count over selection days 2 and 3 (reads of this peptide / all reads for the bait, averaged over ….

On to chain 1 T1I, for which the screen value was 0.000851 average fractional NGS count over selection days 2 and 3 (reads of this peptide / all reads for the bait, averaged over ….

Take chain 1 H12P: the screen value was 0.00102 average fractional NGS count over selection days 2 and 3 (reads of this peptide / all reads for the bait, averaged over ….

Take chain 1 H12D: the screen value was 0.00129 average fractional NGS count over selection days 2 and 3 (reads of this peptide / all reads for the bait, averaged over ….

In the case of chain 1 H12V, the screen value was 0.00311 average fractional NGS count over selection days 2 and 3 (reads of this peptide / all reads for the bait, averaged over ….

As to chain 1 H12K, the screen value is 0.000275 average fractional NGS count over selection days 2 and 3 (reads of this peptide / all reads for the bait, averaged over ….

On to chain 1 H12A, for which the screen value is 0.00137 average fractional NGS count over selection days 2 and 3 (reads of this peptide / all reads for the bait, averaged over ….

For chain 1 H12T, the screen value was 0.00303 average fractional NGS count over selection days 2 and 3 (reads of this peptide / all reads for the bait, averaged over ….

On to chain 1 H12N, for which the screen value was 0.00503 average fractional NGS count over selection days 2 and 3 (reads of this peptide / all reads for the bait, averaged over ….

Turning to chain 1 H12W, the screen value was 0.000302 average fractional NGS count over selection days 2 and 3 (reads of this peptide / all reads for the bait, averaged over ….

For the variant chain 1 H12G, the screen value is 0.00249 average fractional NGS count over selection days 2 and 3 (reads of this peptide / all reads for the bait, averaged over ….

In the case of chain 1 H12Q, the screen value is 0.0044 average fractional NGS count over selection days 2 and 3 (reads of this peptide / all reads for the bait, averaged over ….

For the variant chain 1 S9A, the screen value is 0.000707 average fractional NGS count over selection days 2 and 3 (reads of this peptide / all reads for the bait, averaged over ….

In the case of chain 1 S9P, the screen value is 0.000206 average fractional NGS count over selection days 2 and 3 (reads of this peptide / all reads for the bait, averaged over ….

Turning to chain 1 W6P, the screen value was 0.000161 average fractional NGS count over selection days 2 and 3 (reads of this peptide / all reads for the bait, averaged over ….

chain 1 W6V: the screen value was 0.00015 average fractional NGS count over selection days 2 and 3 (reads of this peptide / all reads for the bait, averaged over ….

chain 1 W6N: the screen value was 0.00011 average fractional NGS count over selection days 2 and 3 (reads of this peptide / all reads for the bait, averaged over ….

Turning to chain 1 W6F, the screen value is 0.000288 average fractional NGS count over selection days 2 and 3 (reads of this peptide / all reads for the bait, averaged over ….

Turning to chain 1 S5G, the screen value is 0.000211 average fractional NGS count over selection days 2 and 3 (reads of this peptide / all reads for the bait, averaged over ….

As to chain 1 S5I, the screen value is 0.00725 average fractional NGS count over selection days 2 and 3 (reads of this peptide / all reads for the bait, averaged over ….

Regarding chain 1 S5N, the screen value was 0.000275 average fractional NGS count over selection days 2 and 3 (reads of this peptide / all reads for the bait, averaged over ….

In the case of chain 1 S5D, the screen value is 0.00879 average fractional NGS count over selection days 2 and 3 (reads of this peptide / all reads for the bait, averaged over ….

Consider chain 1 S5L, for which the screen value is 0.00637 average fractional NGS count over selection days 2 and 3 (reads of this peptide / all reads for the bait, averaged over ….

For the variant chain 1 S5H, the screen value is 0.00161 average fractional NGS count over selection days 2 and 3 (reads of this peptide / all reads for the bait, averaged over ….

Consider chain 1 S5Q, for which the screen value was 0.000811 average fractional NGS count over selection days 2 and 3 (reads of this peptide / all reads for the bait, averaged over ….

With chain 1 S5R, the screen value is 0.00066 average fractional NGS count over selection days 2 and 3 (reads of this peptide / all reads for the bait, averaged over ….

On to chain 1 S5K, for which the screen value is 0.00079 average fractional NGS count over selection days 2 and 3 (reads of this peptide / all reads for the bait, averaged over ….

Turning to chain 1 S5P, the screen value is 0.00403 average fractional NGS count over selection days 2 and 3 (reads of this peptide / all reads for the bait, averaged over ….

Regarding chain 1 Y8A, the screen value was 0.00167 average fractional NGS count over selection days 2 and 3 (reads of this peptide / all reads for the bait, averaged over ….

Turning to chain 1 Y8S, the screen value is 0.00106 average fractional NGS count over selection days 2 and 3 (reads of this peptide / all reads for the bait, averaged over ….

For chain 1 Y8L, the screen value was 0.0129 average fractional NGS count over selection days 2 and 3 (reads of this peptide / all reads for the bait, averaged over ….

As to chain 1 Y8E, the screen value was 0.002 average fractional NGS count over selection days 2 and 3 (reads of this peptide / all reads for the bait, averaged over ….

Take chain 1 Y8W: the screen value was 0.004 average fractional NGS count over selection days 2 and 3 (reads of this peptide / all reads for the bait, averaged over ….

Take chain 1 Y8G: the screen value was 0.000458 average fractional NGS count over selection days 2 and 3 (reads of this peptide / all reads for the bait, averaged over ….

Consider chain 1 Y8M, for which the screen value is 0.00363 average fractional NGS count over selection days 2 and 3 (reads of this peptide / all reads for the bait, averaged over ….

In the case of chain 1 Y8H, the screen value is 0.0119 average fractional NGS count over selection days 2 and 3 (reads of this peptide / all reads for the bait, averaged over ….

chain 1 Y8I: the screen value is 0.00147 average fractional NGS count over selection days 2 and 3 (reads of this peptide / all reads for the bait, averaged over ….

Take chain 1 Y8T: the screen value is 0.0121 average fractional NGS count over selection days 2 and 3 (reads of this peptide / all reads for the bait, averaged over ….

Take chain 1 Y13D: the screen value is 0.0137 average fractional NGS count over selection days 2 and 3 (reads of this peptide / all reads for the bait, averaged over ….

As to chain 1 Y13E, the screen value is 0.000568 average fractional NGS count over selection days 2 and 3 (reads of this peptide / all reads for the bait, averaged over ….

On to chain 1 Y13R, for which the screen value was 0.00043 average fractional NGS count over selection days 2 and 3 (reads of this peptide / all reads for the bait, averaged over ….

For the variant chain 1 Y13F, the screen value is 0.0029 average fractional NGS count over selection days 2 and 3 (reads of this peptide / all reads for the bait, averaged over ….

For chain 1 Y13M, the screen value was 0.00125 average fractional NGS count over selection days 2 and 3 (reads of this peptide / all reads for the bait, averaged over ….

With chain 1 Y13G, the screen value is 0.000568 average fractional NGS count over selection days 2 and 3 (reads of this peptide / all reads for the bait, averaged over ….

In the case of chain 1 Y13A, the screen value was 0.000758 average fractional NGS count over selection days 2 and 3 (reads of this peptide / all reads for the bait, averaged over ….

Consider chain 1 S14F, for which the screen value is 0.00254 average fractional NGS count over selection days 2 and 3 (reads of this peptide / all reads for the bait, averaged over ….

Take chain 1 S14T: the screen value is 0.012 average fractional NGS count over selection days 2 and 3 (reads of this peptide / all reads for the bait, averaged over ….

Consider chain 1 S14H, for which the screen value is 0.00391 average fractional NGS count over selection days 2 and 3 (reads of this peptide / all reads for the bait, averaged over ….

chain 1 S14R: the screen value is 0.000219 average fractional NGS count over selection days 2 and 3 (reads of this peptide / all reads for the bait, averaged over ….

Turning to chain 1 S14M, the screen value is 0.00342 average fractional NGS count over selection days 2 and 3 (reads of this peptide / all reads for the bait, averaged over ….

Turning to chain 1 S14E, the screen value is 0.00034 average fractional NGS count over selection days 2 and 3 (reads of this peptide / all reads for the bait, averaged over ….

Consider chain 1 S14Q, for which the screen value is 0.00119 average fractional NGS count over selection days 2 and 3 (reads of this peptide / all reads for the bait, averaged over ….

For the variant chain 1 S14G, the screen value was 0.000766 average fractional NGS count over selection days 2 and 3 (reads of this peptide / all reads for the bait, averaged over ….

Take chain 1 S14V: the screen value was 0.0171 average fractional NGS count over selection days 2 and 3 (reads of this peptide / all reads for the bait, averaged over ….

Regarding chain 1 S14W, the screen value was 0.00882 average fractional NGS count over selection days 2 and 3 (reads of this peptide / all reads for the bait, averaged over ….

Turning to chain 1 R4W, the screen value was 0.000409 average fractional NGS count over selection days 2 and 3 (reads of this peptide / all reads for the bait, averaged over ….

Turning to chain 1 R4G, the screen value was 0.00304 average fractional NGS count over selection days 2 and 3 (reads of this peptide / all reads for the bait, averaged over ….

On to chain 1 R4A, for which the screen value is 0.00627 average fractional NGS count over selection days 2 and 3 (reads of this peptide / all reads for the bait, averaged over ….

For the variant chain 1 R4M, the screen value was 0.00101 average fractional NGS count over selection days 2 and 3 (reads of this peptide / all reads for the bait, averaged over ….

With chain 1 R4Y, the screen value was 0.00355 average fractional NGS count over selection days 2 and 3 (reads of this peptide / all reads for the bait, averaged over ….

For chain 1 R4D, the screen value was 0.0132 average fractional NGS count over selection days 2 and 3 (reads of this peptide / all reads for the bait, averaged over ….

With chain 1 P10E, the screen value was 0.000515 average fractional NGS count over selection days 2 and 3 (reads of this peptide / all reads for the bait, averaged over ….

chain 1 P10T: the screen value was 0.00133 average fractional NGS count over selection days 2 and 3 (reads of this peptide / all reads for the bait, averaged over ….

Take chain 1 P10K: the screen value is 0.00642 average fractional NGS count over selection days 2 and 3 (reads of this peptide / all reads for the bait, averaged over ….

In the case of chain 1 P10D, the screen value is 0.00117 average fractional NGS count over selection days 2 and 3 (reads of this peptide / all reads for the bait, averaged over ….

Take chain 1 P10Y: the screen value is 0.000349 average fractional NGS count over selection days 2 and 3 (reads of this peptide / all reads for the bait, averaged over ….

As to chain 1 P10M, the screen value is 0.00123 average fractional NGS count over selection days 2 and 3 (reads of this peptide / all reads for the bait, averaged over ….

Turning to chain 1 P10A, the screen value is 0.00236 average fractional NGS count over selection days 2 and 3 (reads of this peptide / all reads for the bait, averaged over ….

Take chain 1 P10H: the screen value was 0.00282 average fractional NGS count over selection days 2 and 3 (reads of this peptide / all reads for the bait, averaged over ….

For the variant chain 1 A15M, the screen value is 0.00017 average fractional NGS count over selection days 2 and 3 (reads of this peptide / all reads for the bait, averaged over ….
